From paper PMC4398755, “Cloning and expressing a highly functional and substrate specific farnesoic acid o-methyltransferase from the Asian citrus psyllid (Diaphorina citri Kuwayama)” (FEBS Open Bio, 2015)

T1: DcFA-o-MT (Diaphorina citri, UniProt A0A075W3Z0)
T1 sequence (A0A075W3Z0 1-272): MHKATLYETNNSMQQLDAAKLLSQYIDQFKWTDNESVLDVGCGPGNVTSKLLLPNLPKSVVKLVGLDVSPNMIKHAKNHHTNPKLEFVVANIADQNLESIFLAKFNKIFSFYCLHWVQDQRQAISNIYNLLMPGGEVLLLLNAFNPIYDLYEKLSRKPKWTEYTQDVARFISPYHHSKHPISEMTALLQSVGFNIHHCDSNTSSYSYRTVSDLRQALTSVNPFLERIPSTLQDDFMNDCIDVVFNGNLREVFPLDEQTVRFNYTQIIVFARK


Key:
Experiment in all cases: radiometric [3H]SAM methyl transfer, RP-HPLC / rapid biphasic separation
DcFA-o-MT = target: T1, DcFA-o-MT; type: biochemical; conditions: 10 μM SAM (saturating), 50 mM Tris-HCl pH 7.9, 25 °C, 30 min; no metal added; 357 pmol enzyme in 100 μL, well above Km; substrate 1-20 μM
Source text: (§1) radiometric [3H]SAM methyl transfer, RP-HPLC / rapid biphasic separation on DcFA-o-MT

[1] = substrate: C/C(=C\C(=O)O)CC/C=C(\C)CC[C@H]1OC1(C)C; type: biochemical, Diaphorina citri; conditions: 10 μM SAM (saturating), 50 mM Tris-HCl pH 7.9, 25 °C, 30 min, no metal added, 357 pmol enzyme in 100 μL, well above Km, substrate 1-20 μM
Source text: as §1

[2] = substrate: CC/C(=C\CC/C(C)=C\C(=O)O)CCC1OC1(C)CC; type: biochemical, Diaphorina citri; conditions: 10 μM SAM (saturating), 50 mM Tris-HCl pH 7.9, 25 °C, 30 min, no metal added, 357 pmol enzyme in 100 μL, well above Km, substrate 1-20 μM, printed kcat/Km 143.4 does not match the printed Km and kcat
Source text: as §1

[3] = substrate: CC(C)=CCC/C(C)=C/CC/C(C)=C/C(=O)O; type: biochemical, Diaphorina citri; conditions: 10 μM SAM (saturating), 50 mM Tris-HCl pH 7.9, 25 °C, 30 min, no metal added, 357 pmol enzyme in 100 μL, well above Km, substrate 1-20 μM
Source text: as §1

[4] = substrate: CC/C(=C/CC/C(C)=C/C(=O)O)CCC1OC1(C)CC; type: biochemical, Diaphorina citri; conditions: 10 μM SAM (saturating), 50 mM Tris-HCl pH 7.9, 25 °C, 30 min, no metal added, 357 pmol enzyme in 100 μL, well above Km, substrate 1-20 μM, error exceeds value, text b19 says Km is 100-fold that of FA,
Source text: as §1

Molecule | Km (DcFA-o-MT) [µM] | Km [1] [µM] | Vmax [1] [µmol/min] | kcat [1] [s⁻¹] | kcat/Km [1] [M⁻¹ s⁻¹] | Km [2] [µM] | Vmax [2] [µmol/min] | Km [3] [µM] | Vmax [3] [µmol/min] | kcat [3] [s⁻¹] | kcat/Km [3] [M⁻¹ s⁻¹] | Km [4] [µM] | Vmax [4] [µmol/min] | kcat/Km [4] [M⁻¹ s⁻¹]
homoFA | 0.02 ± 0.01 | – | – | – | – | – | – | – | – | – | – | – | – | –
DcFA-o-MT (Diaphorina citri) (protein) MHKATLYETNNSMQQLDAAKLLSQYIDQFKWTDNESVLDVGCGPGNVTSKLLLPNLPKSVVKLVGLDVSPNMIKHAKNHHTNPKLEFVVANIADQNLESIFLAKFNKIFSFYCLHWVQDQRQAISNIYNLLMPGGEVLLLLNAFNPIYDLYEKLSRKPKWTEYTQDVARFISPYHHSKHPISEMTALLQSVGFNIHHCDSNTSSYSYRTVSDLRQALTSVNPFLERIPSTLQDDFMNDCIDVVFNGNLREVFPLDEQTVRFNYTQIIVFARK | – | 2.53 ± 0.72 | 2.8e-07 | 1.3e-05 ± 2e-06 | 5.14 | 5.65 ± 0.83 | 1.75e-06 | 0.46 ± 0.05 | 1.61e-05 | 0.00075 ± 3e-05 | 1640 | 4.58 ± 4.82 | 5e-08 | 0.66
